Reference: publication PMC10897178, “FANCJ DNA helicase is recruited to the replisome by AND-1 to ensure genome stability” (EMBO Reports, 2024)

Biological target: T1, Flag-tagged FANCJ D736H (human, UniProt Q9BX63 1-1249, D736H)
T1 construct: FANCJ (BRIP1), human, full-length; missense variant found in invasive breast carcinoma; source: HEK 293T, transiently transfected, purified (anti-Flag M2 agarose)
T1 sequence (looked up): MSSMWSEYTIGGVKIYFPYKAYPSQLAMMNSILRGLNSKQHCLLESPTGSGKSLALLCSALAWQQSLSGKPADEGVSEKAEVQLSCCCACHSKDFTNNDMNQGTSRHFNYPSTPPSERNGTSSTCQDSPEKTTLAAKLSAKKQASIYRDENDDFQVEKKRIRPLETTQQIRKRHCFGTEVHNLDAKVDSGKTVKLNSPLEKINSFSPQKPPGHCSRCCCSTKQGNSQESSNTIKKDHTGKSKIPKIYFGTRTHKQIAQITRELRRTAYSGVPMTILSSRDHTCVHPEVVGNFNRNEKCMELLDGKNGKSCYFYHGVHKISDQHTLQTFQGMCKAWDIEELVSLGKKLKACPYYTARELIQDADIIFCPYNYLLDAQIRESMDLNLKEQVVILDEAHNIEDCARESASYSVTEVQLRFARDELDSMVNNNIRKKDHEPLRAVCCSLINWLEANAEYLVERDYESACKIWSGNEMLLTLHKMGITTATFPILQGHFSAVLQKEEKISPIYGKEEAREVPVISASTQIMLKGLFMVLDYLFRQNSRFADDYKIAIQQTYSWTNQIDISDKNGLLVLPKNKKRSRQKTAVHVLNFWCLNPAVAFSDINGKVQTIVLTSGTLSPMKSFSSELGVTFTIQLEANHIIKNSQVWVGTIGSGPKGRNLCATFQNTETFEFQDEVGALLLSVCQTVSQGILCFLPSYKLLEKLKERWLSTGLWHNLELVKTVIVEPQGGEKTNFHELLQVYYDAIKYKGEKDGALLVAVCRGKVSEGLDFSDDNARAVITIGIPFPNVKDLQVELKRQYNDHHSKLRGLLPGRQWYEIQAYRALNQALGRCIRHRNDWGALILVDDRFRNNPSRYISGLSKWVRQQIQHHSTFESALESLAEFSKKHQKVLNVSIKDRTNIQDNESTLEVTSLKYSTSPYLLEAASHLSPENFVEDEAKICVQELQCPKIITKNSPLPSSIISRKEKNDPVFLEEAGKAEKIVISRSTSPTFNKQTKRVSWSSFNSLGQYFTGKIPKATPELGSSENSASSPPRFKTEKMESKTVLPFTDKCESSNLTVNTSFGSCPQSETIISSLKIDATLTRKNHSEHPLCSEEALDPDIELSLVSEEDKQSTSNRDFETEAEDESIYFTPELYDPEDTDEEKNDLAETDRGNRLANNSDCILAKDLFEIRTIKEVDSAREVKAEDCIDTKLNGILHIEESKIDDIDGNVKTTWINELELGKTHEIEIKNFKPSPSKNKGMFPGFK
Experiment: pull-down; GST-SepB α-helix bundle (0.5 µg) on Glutathione Sepharose 4B beads, purified Flag-FANCJ (0.5 µg) added; 25 mM Tris-HCl pH 7.5, 150 mM NaCl, 0.1% Triton X-100, 4 °C; washes with 300 mM NaCl, 1% Triton X-100; Western blot
Details: both partners purified

binding result: binds
B1: GST-SepB α-helix bundle WT (domain or fragment, human, UniProt O75717 718-824, looked up)
chain: IATEKGQMEEQFWRSVIFHNHLDYLAKNGYEYEESTKNQATKEQQELLMKMLALSCKLEREFRCVELADLMTQNAVNLAIKYASRSRKLILAQKLSELAVEKAAELT
notes: AND-1 (WDHD1), human, α-helix bundle of the SepB domain, amino-acid residues 718-824; Cloned into pGEX-2T; also called GST-SepB α-helix bundle chimeric protein; source: E. coli Rosetta pLysS (DE3), purified (Glutathione Sepharose 4B)
